Data from the DeepSol protein solubility set.

Experiment: soluble on expression in E. coli; label from the status in PepcDB or PDB records

**Q.** For “MGSDKIHHHHHHMYYQLYELHHAALQPARTYADAIRLFYSNPLNPVSSTTWGRSIAAAAEMFERTTRRYGKPGFGITSTVVDGKEVRVQEKEVWSRPFCRLLHFERQLPARRKPDVKLLMVAPMSGHYATLLRGTVEAMLPHADVYITDWIDARMVPLSYGNFDLDDYIDYLIEMFHLLGPDASVMAVCQPSVPVLAAVALMEARGDPNLPSSMTLMGGPIDTRRNPTAVNRLAQEHGIEWFRDNVVMSVPWPNPGFMRPVYPGFLQLSGFMSMNLDRHIVAHEEFFMHLVKGDGDSAEKHREFYDEYLAVMDLTAEFYLQTVDTVFIRHALPKGEMTHRSERVDPASIRSVALLTVEGENDDISGIGQTKAAHDLCVNIPSGKRHHHLQPSVGHYGVFNGSRFRKEILPRIVRFVNENRGA”, which “soluble on expression in E. coli” value is on record?
**A.** The value was “not soluble”.

**Q.** With “MSVFTPLARPELETFLAPYGLGRLLDYQGIAAGSENTNYFISLEQGEFVLTLVERGPVQEMPFFIELLDVLHDANLPVPYALRTTDGQALRELAGKPALLQPRLPGKHISEPNTQHCVQIGELLANLHLATREQVLERKTDRGLDWMLSEGRNFLSHLGETQRALLEKSLQEIEDLKPQIMALPRANLHADLFRDNVLFEGTHLTGLIDFYNACSGPMLYDLAIALNDWCSRENGQLDAVRARALLGAYAGLRPFTAAESKLWATMLRIACVRFWLSRLIAAETFAGQDVLIHDPVEFEQRLAERQTPHIALPFAL” as the sequence, how does the “soluble on expression in E. coli” value read?
**A.** The value was “soluble”.

**Q.** For “MEIKQTIAKNLNRVKNELGLKNQDLAEVMGVTRQTIAKYLKGEQIPDSAKLFLLSRRLNIPMKDLIVSSDDQREPMSSFMFRADNPKENFRLIDQNQVNRIMDDYYELLASFGEASVAYLPPTYKLKLVDHELTEEHKTIIRQAAEQTRKMFGLDHVIPSDIYAVLEHHGIHVIALKTIDKKIDGLSAYSEEKGAFIFLNDHDEIPEERKRFSVIHELGHLIFHREEYRSDLSSLTYSSARREINEKVATLFASYFLIPREQLREYAYYFKRYVTIETIMELKRQFFVSAEAFMRALLDEQYISGRTYGFLRKTLREQGYKEQEPAPIDYIPKNRKLTYFVKQAYFEGSITINKVCEILGCDLRTAREMIKGWYKEHGCSENTGAL”, which “soluble on expression in E. coli” value is on record?
**A.** The value was “not soluble”.

**Q.** With “MCLAIPGKVVEIKGNVGIVDFGGIRREVRLDLLSDVKVGDYVIVHTGFAIEKLDERRAREILEAWEEVFSVIGGE” as the sequence, how does the “soluble on expression in E. coli” value read?
**A.** Its value is “not soluble”.

**Q.** With “EVQLVESGGGLVQPGGSLRLSCAASGFNIKEYYMHWVRQAPGKGLEWVGLIDPEQGNTIYDPKFQDRATISADNSKNTAYLQMNSLRAEDTAVYYCARDTAAYFDYWGQGTLVTVSSASTKGPSVFPLAPSSKSTSGGTAALGCLVKDYFPEPVTVSWNSGALTSGVHTFPAVLQSSGLYSLSSVVTVPSSSLGTQTYICNVNHKPSNTKVDKKVEPKSCDKTHT” as the sequence, how does the “soluble on expression in E. coli” value read?
**A.** The value was “soluble”.

**Q.** Which “soluble on expression in E. coli” value does the source give for “MKKRALVSVSDKTGVVEFVKGLLEQGIEVISTGGTKKLLEENGLQVIGISEVTGFPEIMDGRVKTLHPNIHGGLLAVRDNETHVAQMNELGMEPIDFVVVNLYPFKETIAKPDVTFADAIENIDIGGPTMIRSAAKNHKFVSVIVDPVDYDVVLAELKENGEVAEETKRKLAAKVFRHTAAYDALISNYLTEQMGEESPETLTVTFEKKQDLRYGENPHQKATFYKAPFAATSSVAYAEQLHGKELSYNNINDADAALSIVKEFTEPAVVAVKHMNPCGVGVGTDIHEAYTRAYEADPVSIFGGIIAANREIDKATAEKLHEIFLEIIIAPSFSKEALEVLQSKKNLRLLTVNIEKATSASKKLTSVQGGLLVQEEDTLSLDESTISIPTKREPSEQEWKDLKLAWKVVKHVKSNAIVLAKDDMTIGVGAGQMNRVGSAKIAITQAGEKAQGSALASDAFFPMPDTVEEAAKAGITAIIQPGGSIRDEDSIKVADTYGIAMVFTGVRHFKH” here?
**A.** Its value is “not soluble”.

**Q.** Which “soluble on expression in E. coli” value does the source give for “MGSDKIHHHHHHAGCAMIPPEPVVTGPLTAPPPPPPQPSARPNGSIYQPSAYGNYPLFEDRRPRNVGDIVTIVLEEKTNAAKGVATNTSRDGSATLGVAAAPRFMDGIINDKLDTDISGGNTANGTGKSSANNTFTGTITTTVIGVLPNGNLQIAGEKQIAINRGSEYVRFSGVVDPRSITGSNTVSSTRVADARIEYRSKGVMDEVQTMGWLQRFFLIASPF” here?
**A.** The value was “not soluble”.

**Q.** Which “soluble on expression in E. coli” value does the source give for “MAGDPMRVEVGQIVNTHGIKGEIKVKSNSDFTDVRFQPGQVLTVVHNNNDLEYTVKSHRVHKGLHMLTFEGINNINDIEHLKGSSIYQERDHEDIVLEENEFYYSDIIGCTVFDDQETPIGRVINIFETGANDVWVIKGSKEYLIPYIADVVKEVDVENKKIIITPMEGLLDLEHHHHHH” here?
**A.** The value was “soluble”.

**Q.** With “MAHHHHHHMLHCSREEVGELLIDSCKRSVGTSVELDTLLSNKNTSKVAPDATAATIMQVRMMYGKDDSGDLSYAEMTRLVEGLSSSKDLTERILKPFEDDNRHTIAFSEFAKVYSNAVSFKELGYVFQDLAGGQQTISRDTFASFVCDIQDEDWDAETLNEKLALMGCVGIDGITENNFVGYIMSPYFDFAMEKKLTGVYQDMDQIMCCYFISSSHNTYLTGDQLTSKSSAQMYKKGASRRVPVREAICRNGPHGEPIVCHGYTRTSCIAFEECVKMIRQYAFTASAYLVILSLGVHTSVEQQDKMAEILEEGLGSLLFWPPWGSNEKPTMAFSPNNLKNKILVKAKRGDFPAREPRVDKDDDATETDSMASTNNADYLKMKEARRKAGKDEVRVSAKLSAIVSIESSKYQGVKDLSYLKDKQPHHCSSYSERKGKAIVREAHNALVCINDTCLSRVFPAGSRIDSSNYRPLLYWVSGCQMVAINWQSSDTFGWRLNGCIFLDSGCCGYLLKPDYLRPVTCPDVAVPEYLRSLTVEVIWGFALPSAKQARGCRPVCDSFPRGP” as the sequence, how does the “soluble on expression in E. coli” value read?
**A.** Its value is “not soluble”.

**Q.** With “GPGSMNIQGMALHGHMKPVTMIKFNREGDLLFSTAKEPNVSVWYTKTGERLGTYDGHSAISACDVNNYSTLLVTGGMDFKAKLWCVETGEELANIMLRTPARAVGFSHDDNLLMVSTSRKMGQKSAVQLYNLPFLPPKDGYSIHPVNTVFNPCTEFVSENDDVTFAIWGPTNDTIYYSTSDGSVAILDVETMSTVCTHKPHEETINRISFDSNYYTLITASKDKTARLLDSRDLSVVQTYTSDVPVNDASISPRGDHVIIGGGMDAQDVTTQGGQTTFEVKFYHKVHEKQLGQVRCHFGTINSVCFFPDGRGFASGAFDGLVKLHRFDDKYSSTPGAIPLWTPEGI” as the sequence, how does the “soluble on expression in E. coli” value read?
**A.** The value was “not soluble”.

**Q.** For “MGSDKIHHHHHHMNFDVAIIGGGLAGLTCAIALQQRGKRCVIINNGQAAIDFASGSLDLLSRMPSTTYGENRAVENLKENITALRNELPAHPYSLLGAEKVLAKAQDFERLANELHLDLIGSTEKNHWRVTGLGSLRGAWLSPNSVPTVQGNEPFPHKRIAVLGIEGYHDFQPQLLAANLVLNPQFEHCEVTSGFLNIPQLDELRKNAREFRSVNISQLLEHKLAFKDLVKEIIESAQGAEAVFLPACFGLENQEFMTALRDATKLALFELPTLPPSLLGMRQRIQLRHKFESLGGLMINGDSALNATFEGNQVRCINTRLLEDEEITADNFVLASGSFFSKGLISEFDKIYEPVFESDIIGVEGFNNKDRFTWTAHRFAHPQPYQSAGVAINAQCQVKKCGQFLTNLYAVGNVIGGFNALELGCGSGVAVVTALAVADEILAK”, which “soluble on expression in E. coli” value is on record?
**A.** Its value is “not soluble”.

**Q.** For “GSAPAKEPSVNTALVPQLSTISRALTPSPVMVLENIEPEIVYAGYDSSKPDTAENLLSTLNRLAGKQMIQVVKWAKVLPGFKNLPLEDQITLIQYSWMSLSSFALSWRSYKHTNSQFLYFAPDLVFNEEKMHQSAMYELCQGMHQISLQFVRLQLTFEEYTIMKVLLLLSTIPKDGLKSQAAFEEMRTNYIKELRKMVTKCPNNSGQSWQRFYQLTKLLDSMHDLVSDLLEFCFYTFRESHALKVEFPAMLVEIISDQLPKVESGNAKPLYFHRK”, which “soluble on expression in E. coli” value is on record?
**A.** The value was “soluble”.

**Q.** For “GPGSMTSTVTAVNQTQSLAAIRNFVRASVSCITYARGLCSDNAYEQRPFLGLPLRQLIPSTTESITISEWIEKGAFDALNRNYLKEMSLCVYDAACHELLESYCFGFNYTGDGERAQMTLNASQTIADGSKTTAVSQSSGGAVGIPAYRKRRCTKQEVQHLLTSILERLMDVVESLPPLLSERVLTMRLTYYDAVTPASYEPPCFAPASEHMARLYQAEVKHHVNIGSMDTSHHLFSVAIRHPLLQQIHRQMTGRTTSAVATKT”, which “soluble on expression in E. coli” value is on record?
**A.** Its value is “not soluble”.

**Q.** With “MGSDKIHHHHHHMNIKHLDVLRTLLATGSTIAAAKAMGLSQSGVSRMLQQLESDLAITLFARDKGRLIPTPEATVLGRDAQNVLLAIERMSGHAEDLRNGSAGPEIVRIGLPSSMWENFAPAMLIDYVRDFPGVRIETFFETTTAITKLVEERVIDLGFLRIEGETGPGIAIDKVASGESVCVVPKDHSLAELPEITVKHLRNVPLILIGRQRPNRMALDQAFQRAGVKQMVKIETHTNSSACSYVAHGLGVSIISSFYANLYRHLPVVYRPFVPRATQEFGLVRAAGVPLSIAAQALSDALKKQIRLSQEEQ” as the sequence, how does the “soluble on expression in E. coli” value read?
**A.** The value was “not soluble”.

**Q.** For “MGSDKIHHHHHHMISSSTVHAFYFSAKYSSFSRAAEILETTQPNISGQIIKLEKDLDTILFIRKQGRVSLSKEGEKLYLVAEKIVNSYKEFDSVVEYFFEEEPIVIVTQPRLYTKYVAPYLTDDLINNNLFHIKTGELTAIKSWLDKEDADIVITEGLFDSHSRYINEGVIDVLKFSWAKKVNEQFDSPCPTLVHSKVWDHWHDLSSALNRNKEFKRKLIIDTPDFAERLIESGVGIGLLPNVMISNNANLEVCHGPTRNNVLGPICLYSKKYSQHKNLRSLVNMFKKESSDS”, which “soluble on expression in E. coli” value is on record?
**A.** The value was “not soluble”.

**Q.** With “MFDPKKFIDEAVEEIKQQISDRKAIIALSGGVDSSVAAVLTHKAIGDKLTAVFVDTGLMRKGEREEVEKTFRDKLGLNLIVVDAKDRFLNALKGVTDPEEKRKIIGKLFIDVFEEIAEDIKAEVLVQGTIAPDWIETQGKIKSHHNVALPHGMVLEVVEPLRELYKDEVRLLAKELGLPDSIVYRQPFPGPGLAVRVLGEVTEEKLNICREANAIVEEEVKKANLDKDLWQYFAVVLDCKATGVKGDEREYNWIVALRMVKSLDAMTAHVPEIPFDLLKRISKRITSEIPNVARVVFDITDKPPATIEFE” as the sequence, how does the “soluble on expression in E. coli” value read?
**A.** The value was “soluble”.

**Q.** Which “soluble on expression in E. coli” value does the source give for “AHHHHHHGSYKILEKKEIAMRNTWYKVYAPHVAKKVQPGQFVIVRAFPNGERIPLTPVMWDREEGWIVLIVFTRGKTTMRMAVELKEGDSLLNVAGPLGTPVPMEKFGKILAIGAYTGIVEVYPIAKAWQEIGNDVTTLHVTFEPMVILKEELEKAVTRHIVEPVPLNPNQDFLANMKNVSQRLKEKVRELLESEDWDLVFMVGPVGDQKQVFEVVKEYGVPMKVDLHPIMVDGTGMCGACRVTVGGEVKFACVDGPEFDAYQVDWDELIHRVGFYAKLEKLALEKYMEELKAKGVIMPRLIKERVPTPERSVGERVRDFGEVNLGYSWELALREAERCLQCPVEYAPCIKGCPVHINIPGFIKALRENRDNPSKAVREALRIIWRDNTLPAITGRVCPQEEQCEGACVVGKVGDPINIGKLERFVADYAREHGIDDELLLEEIKGIKRNGKKVAIIGAGPAGLTCAADLAKMGYEVTIYEALHQPGGVLTYGIPEFRLPKEILRKELKKLSLLGVEIKTDHIVGKTITIQELLQEYDAVFIGTGAGTPKLPNIPGINLNGIYSANEFLTRINLMKAYKFPEYDTPIVVGKKVVVIGAGNTAMDAARSALRLGAEVTIAYRRGREDMTARIEEVKHAEEEGVKFMFFVNPVEFIGDENGNVKAVKFEKMKPLEERDSRGKRKIVGTGEYITVEADTVIIAIGQTPNKVLWRATPELKVDEWGRIVVDENLMTSIPGVFAGGDAIRGEATVILAMGDGRKAAKAIHQYLSKKGN” here?
**A.** The value was “soluble”.
